Source: patent publication US20250163145A1 (SHIONOGI, published 2025)
Where no end group is shown, it is not given here.

B1: h15H11-21 (antibody, human IgG4 S228P, kappa, V domains shown)
VH: QVQLVQSGSELKKPGASVKVSCKASGYTFTEYNMHWVRQAPGRSLEWMGRINPKNGVILSNEKFKDRFVFSLDTSVSTAYLQISSLKAEDTAVYYCAPSYYGGNTDAYWGQGTLVTVSS
VL: DIVLTQSPASLAVSPGQRATITCRASDSVDNYGISFLNWFQQKPGQPPKLLIYAASSQGSGVPARFSGSGSGTDFTLTINPMEANDTANYYCQQSKEFPWTFGGGTKVEIKR
notes: hIgG4Pro/hIgK
B2: h15H11-27 (antibody, human IgG4 S228P, kappa, V domains shown)
VH: QVQLVQSGSELKKPGASVKVSCKASGYTFTDYNMHWVRQAPGRSLEWMGRINPKNGVILSNEKFKDRFVFSLDTSVSTAYLQISSLKAEDTAVYYCAPSYYGGNTDAYWGQGTLVTVSS
VL: DIVLTQSPASLAVSPGQRATITCRVSDSVDNYGISFLNWFQQKPGQPPKLLIYAASSQGSGVPARFSGSGSGTDFTLTINPMEANDTANYYCQQSKEFPWTFGGGTKVEIKR
notes: hIgG4Pro/hIgK
B3: h15H11-22 (antibody, human IgG4 S228P, kappa, V domains shown)
VH: QVQLVQSGSELKKPGASVKVSCKASGYTFTEYNMHWVRQAPGRSLEWMGRINPKNGVINSNEKFKDRFVFSLDTSVSTAYLQISSLKAEDTAVYYCAPSYYGGDTDAYWGQGTLVTVSS
VL: DIVLTQSPASLAVSPGQRATITCRASESVDNYGISFMNWFQQKPGQPPKLLIYAASSQGSGVPARFSGSGSGTDFTLTINPMEANDTANYYCQQSKEFPWTFGGGTKVEIKR
notes: hIgG4Pro/hIgK
B4: h15H11-39 (antibody, human IgG4 S228P, kappa, V domains shown)
VH: QVQLVQSGSELKKPGASVKVSCKASGYTFTDYNMHWVRQAPGRSLEWMGRINPKNGVINYNEKFKDRFVFSLDTSVSTAYLQISSLKAEDTAVYYCAPSYYGGNTDAYWGQGTLVTVSS
VL: DIVLTQSPASLAVSPGQRATITCRASDSVDNYGISFLNWFQQKPGQPPKLLIYAASSQGSGVPARFSGSGSGTDFTLTINPMEANDTANYYCQQSKEFPWTFGGGTKVEIKR
notes: hIgG4Pro/hIgK
B5: h15H11-28 (antibody, human IgG4 S228P, kappa, V domains shown)
VH: QVQLVQSGSELKKPGASVKVSCKASGYTFTEYNMHWVRQAPGRSLEWMGRINPKNGVINSNEKFKDRFVFSLDTSVSTAYLQISSLKAEDTAVYYCAPSYYGGNSDAYWGQGTLVTVSS
VL: DIVLTQSPASLAVSPGQRATITCRASESVDNYGISFMNWFQQKPGQPPKLLIYAASSQGSGVPARFSGSGSGTDFTLTINPMEANDTANYYCQQSKEFPWTFGGGTKVEIKR
notes: hIgG4Pro/hIgK
B6: h15H11-38 (antibody, human IgG4 S228P, kappa, V domains shown)
VH: QVQLVQSGSELKKPGASVKVSCKASGYTFTDYNMHWVRQAPGRSLEWMGRINPKNGVIKSNEKFKDRFVFSLDTSVSTAYLQISSLKAEDTAVYYCAPSYYGGNTDAYWGQGTLVTVSS
VL: DIVLTQSPASLAVSPGQRATITCRVSDSVDNYGISFLNWFQQKPGQPPKLLIYAASSQGSGVPARFSGSGSGTDFTLTINPMEANDTANYYCQQSKEFPWTFGGGTKVEIKR
notes: hIgG4Pro/hIgK
B7: h15H11-24 (antibody, human IgG4 S228P, kappa, V domains shown)
VH: QVQLVQSGSELKKPGASVKVSCKASGYTFTEYNMHWVRQAPGRSLEWMGRINPKNGVIQSNEKFKDRFVFSLDTSVSTAYLQISSLKAEDTAVYYCAPSYYGGNSDAYWGQGTLVTVSS
VL: DIVLTQSPASLAVSPGQRATITCRASDSVDNYGISFLNWFQQKPGQPPKLLIYAASSQGSGVPARFSGSGSGTDFTLTINPMEANDTANYYCQQSKEFPWTFGGGTKVEIKR
notes: hIgG4Pro/hIgK
B8: h15H11-29 (antibody, human IgG4 S228P, kappa, V domains shown)
VH: QVQLVQSGSELKKPGASVKVSCKASGYTFTDYNMHWVRQAPGRSLEWMGRINPKNGVILSNEKFKDRFVFSLDTSVSTAYLQISSLKAEDTAVYYCAPSYYGGNTDAYWGQGTLVTVSS
VL: DIVLTQSPASLAVSPGQRATITCRASESVDNYGISFMNWFQQKPGQPPKLLIYAASSQGSGVPARFSGSGSGTDFTLTINPMEANDTANYYCQQSKEFPWTFGGGTKVEIKR
notes: hIgG4Pro/hIgK
B9: h15H11-30 (antibody, human IgG4 S228P, kappa, V domains shown)
VH: QVQLVQSGSELKKPGASVKVSCKASGYTFTDYNMHWVRQAPGRSLEWMGRINPKNGVINSNEKFKDRFVFSLDTSVSTAYLQISSLKAEDTAVYYCAPSYYGGDTDAYWGQGTLVTVSS
VL: DIVLTQSPASLAVSPGQRATITCRASDSVDNYGISFLNWFQQKPGQPPKLLIYAASSQGSGVPARFSGSGSGTDFTLTINPMEANDTANYYCQQSKEFPWTFGGGTKVEIKR
notes: hIgG4Pro/hIgK
B10: h15H11-26 (antibody, human IgG4 S228P, kappa, V domains shown)
VH: QVQLVQSGSELKKPGASVKVSCKASGYTFTDYNMHWVRQAPGRSLEWMGRINPKNGVINSNEKFKDRFVFSLDTSVSTAYLQISSLKAEDTAVYYCAPSYYGGDTDAYWGQGTLVTVSS
VL: DIVLTQSPASLAVSPGQRATITCRVSDSVDNYGISFLNWFQQKPGQPPKLLIYAASSQGSGVPARFSGSGSGTDFTLTINPMEANDTANYYCQQSKEFPWTFGGGTKVEIKR
notes: hIgG4Pro/hIgK
B11: h15H11-32 (antibody, human IgG4 S228P, kappa, V domains shown)
VH: QVQLVQSGSELKKPGASVKVSCKASGYTFTEYNMHWVRQAPGRSLEWMGRINPKNGVINSNEKFKDRFVFSLDTSVSTAYLQISSLKAEDTAVYYCAPSYYGGNSDAYWGQGTLVTVSS
VL: DIVLTQSPASLAVSPGQRATITCRVSDSVDNYGISFLNWFQQKPGQPPKLLIYAASSQGSGVPARFSGSGSGTDFTLTINPMEANDTANYYCQQSKEFPWTFGGGTKVEIKR
notes: hIgG4Pro/hIgK
B12: h15H11-35 (antibody, human IgG4 S228P, kappa, V domains shown)
VH: QVQLVQSGSELKKPGASVKVSCKASGYTFTDYNMHWVRQAPGRSLEWMGRINPKNGVINSNEKFKDRFVFSLDTSVSTAYLQISSLKAEDTAVYYCAPSYYGGNQDAYWGQGTLVTVSS
VL: DIVLTQSPASLAVSPGQRATITCRASDSVDNYGISFLNWFQQKPGQPPKLLIYAASSQGSGVPARFSGSGSGTDFTLTINPMEANDTANYYCQQSKEFPWTFGGGTKVEIKR
notes: hIgG4Pro/hIgK
B13: h15H11-31 (antibody, human IgG4 S228P, kappa, V domains shown)
VH: QVQLVQSGSELKKPGASVKVSCKASGYTFTEYNMHWVRQAPGRSLEWMGRINPKNGVIQSNEKFKDRFVFSLDTSVSTAYLQISSLKAEDTAVYYCAPSYYGGNSDAYWGQGTLVTVSS
VL: DIVLTQSPASLAVSPGQRATITCRASESVDNYGISFMNWFQQKPGQPPKLLIYAASSQGSGVPARFSGSGSGTDFTLTINPMEANDTANYYCQQSKEFPWTFGGGTKVEIKR
notes: hIgG4Pro/hIgK
B14: h15H11-33 (antibody, human IgG4 S228P, kappa, V domains shown)
VH: QVQLVQSGSELKKPGASVKVSCKASGYTFTDYNMHWVRQAPGRSLEWMGRINPKNGVIQSNEKFKDRFVFSLDTSVSTAYLQISSLKAEDTAVYYCAPSYYGGNSDAYWGQGTLVTVSS
VL: DIVLTQSPASLAVSPGQRATITCRASDSVDNYGISFLNWFQQKPGQPPKLLIYAASSQGSGVPARFSGSGSGTDFTLTINPMEANDTANYYCQQSKEFPWTFGGGTKVEIKR
notes: hIgG4Pro/hIgK
B15: h15H11-25 (antibody, human IgG4 S228P, kappa, V domains shown)
VH: QVQLVQSGSELKKPGASVKVSCKASGYTFTEYNMHWVRQAPGRSLEWMGRINPKNGVILSNEKFKDRFVFSLDTSVSTAYLQISSLKAEDTAVYYCAPSYYGGNTDAYWGQGTLVTVSS
VL: DIVLTQSPASLAVSPGQRATITCRASESVDNYGISFMNWFQQKPGQPPKLLIYAASSQGSGVPARFSGSGSGTDFTLTINPMEANDTANYYCQQSKEFPWTFGGGTKVEIKR
notes: hIgG4Pro/hIgK
B16: h15H11-37 (antibody, human IgG4 S228P, kappa, V domains shown)
VH: QVQLVQSGSELKKPGASVKVSCKASGYTFTDYNMHWVRQAPGRSLEWMGRINPKNGVINSNEKFKDRFVFSLDTSVSTAYLQISSLKAEDTAVYYCAPSYYGGNQDAYWGQGTLVTVSS
VL: DIVLTQSPASLAVSPGQRATITCRVSDSVDNYGISFLNWFQQKPGQPPKLLIYAASSQGSGVPARFSGSGSGTDFTLTINPMEANDTANYYCQQSKEFPWTFGGGTKVEIKR
notes: hIgG4Pro/hIgK
B17: h15H11-23 (antibody, human IgG4 S228P, kappa, V domains shown)
VH: QVQLVQSGSELKKPGASVKVSCKASGYTFTEYNMHWVRQAPGRSLEWMGRINPKNGVINSNEKFKDRFVFSLDTSVSTAYLQISSLKAEDTAVYYCAPSYYGGNSDAYWGQGTLVTVSS
VL: DIVLTQSPASLAVSPGQRATITCRASDSVDNYGISFLNWFQQKPGQPPKLLIYAASSQGSGVPARFSGSGSGTDFTLTINPMEANDTANYYCQQSKEFPWTFGGGTKVEIKR
notes: hIgG4Pro/hIgK
B18: h15H11-40 (antibody, human IgG4 S228P, kappa, V domains shown)
VH: QVQLVQSGSELKKPGASVKVSCKASGYTFTDYNMHWVRQAPGRSLEWMGRINPKNGVINLNEKFKDRFVFSLDTSVSTAYLQISSLKAEDTAVYYCAPSYYGGNTDAYWGQGTLVTVSS
VL: DIVLTQSPASLAVSPGQRATITCRVSDSVDNYGISFLNWFQQKPGQPPKLLIYAASSQGSGVPARFSGSGSGTDFTLTINPMEANDTANYYCQQSKEFPWTFGGGTKVEIKR
notes: hIgG4Pro/hIgK
B19: h15H11-41 (antibody, human IgG4 S228P, kappa, V domains shown)
VH: QVQLVQSGSELKKPGASVKVSCKASGYTFTDYNMHWVRQAPGRSLEWMGRINPKNGVINSNEKFKDRFVFSLDTSVSTAYLQISSLKAEDTAVYYCAPSYFGGNSDAYWGQGTLVTVSS
VL: DIVLTQSPASLAVSPGQRATITCRASDSVDNYGISFLNWFQQKPGQPPKLLIYAASSQGSGVPARFSGSGSGTDFTLTINPMEANDTANYYCQQSKEFPWTFGGGTKVEIKR
notes: hIgG4Pro/hIgK
B20: h15H11-34 (antibody, human IgG4 S228P, kappa, V domains shown)
VH: QVQLVQSGSELKKPGASVKVSCKASGYTFTEYNMHWVRQAPGRSLEWMGRINPKNGVINSNEKFKDRFVFSLDTSVSTAYLQISSLKAEDTAVYYCAPSYFGGQSDAYWGQGTLVTVSS
VL: DIVLTQSPASLAVSPGQRATITCRASDSVDNYGISFLNWFQQKPGQPPKLLIYAASSQGSGVPARFSGSGSGTDFTLTINPMEANDTANYYCQQSKEFPWTFGGGTKVEIKR
notes: hIgG4Pro/hIgK
B21: h15H11-36 (antibody, human IgG4 S228P, kappa, V domains shown)
VH: QVQLVQSGSELKKPGASVKVSCKASGYTFTDYNMHWVRQAPGRSLEWMGRINPKNGVINLNEKFKDRFVFSLDTSVSTAYLQISSLKAEDTAVYYCAPSYYGGNTDAYWGQGTLVTVSS
VL: DIVLTQSPASLAVSPGQRATITCRASDSVDNYGISFLNWFQQKPGQPPKLLIYAASSQGSGVPARFSGSGSGTDFTLTINPMEANDTANYYCQQSKEFPWTFGGGTKVEIKR
notes: hIgG4Pro/hIgK

Target: T1, epitope peptide Cys-CE3C long (also: biotin label, site not given here)
T1 peptide: CSVNVDKQPKYEYSL
Test: competitive ELISA, unlabeled vs biotin-labeled peptide, antibody on anti-human IgG plate
Method: A diluted solution of the obtained recombinant humanized antibody, a biotin-labeled immunogen peptide, and Streptavidin-HRP (manufactured by PIERCE) were added to an anti-human IgG antibody-immobilized plate, and reacted overnight at 4° C. […] Next, a recombinant human antibody at the dilution rate, a biotin-labeled immunogen peptide, and Streptavidin-HRP (manufactured by PIERCE) were added. At the same time, a dilution series of unlabeled immunogenic peptide was added and reacted overnight at 4° C. After washing twice with ELISA wash buffer, TMB-Substrate Chromogen (manufactured by Thermo Fisher Scientific) was added to develop color, the reaction was stopped with an equal amount of 0.5N sulfuric acid, and the absorbance at 450 nm was measured. The concentration of the unlabeled peptide which attenuated the signal of the biotin-labeled peptide by half was defined as the affinity (IC50).

B1 and B2 are within 1.5-fold of each other in IC50: 0.8 nM for the first, 0.91 nM for the second.

B3 and B4 are within 1.5-fold of each other in IC50: 0.8 nM for the first, 1.05 nM for the second.

B5 and B6 are within 1.5-fold of each other in IC50: 0.91 nM for the first, 1.04 nM for the second.

B7 and B8 are within 1.5-fold of each other in IC50: 0.85 nM for the first, 0.91 nM for the second.

B9 and B10 are within 1.5-fold of each other in IC50: 0.92 nM for the first, 0.88 nM for the second.

B11 and B12 are within 1.5-fold of each other in IC50: 0.95 nM for the first, 1 nM for the second.

B13 and B14 are within 1.5-fold of each other in IC50: 0.93 nM for the first, 0.98 nM for the second.

B15 and B16 are within 1.5-fold of each other in IC50: 0.86 nM for the first, 1.04 nM for the second.

B17 and B18 are within 1.5-fold of each other in IC50: 0.83 nM for the first, 1.06 nM for the second.

B19 and B20 are within 1.5-fold of each other in IC50: 1.07 nM for the first, 0.99 nM for the second.

B21 gave an IC50 of 1.02 nM.
